Test results reported in publication PMC3796201 (Nature structural & molecular biology, 2013).

Target: CRM1 (human, recombinant, His-tagged) (human, UniProt O14980 1-1071)
Experiment: pull-down

Chain of CRM1 (human, recombinant, His-tagged) (O14980 whole entry): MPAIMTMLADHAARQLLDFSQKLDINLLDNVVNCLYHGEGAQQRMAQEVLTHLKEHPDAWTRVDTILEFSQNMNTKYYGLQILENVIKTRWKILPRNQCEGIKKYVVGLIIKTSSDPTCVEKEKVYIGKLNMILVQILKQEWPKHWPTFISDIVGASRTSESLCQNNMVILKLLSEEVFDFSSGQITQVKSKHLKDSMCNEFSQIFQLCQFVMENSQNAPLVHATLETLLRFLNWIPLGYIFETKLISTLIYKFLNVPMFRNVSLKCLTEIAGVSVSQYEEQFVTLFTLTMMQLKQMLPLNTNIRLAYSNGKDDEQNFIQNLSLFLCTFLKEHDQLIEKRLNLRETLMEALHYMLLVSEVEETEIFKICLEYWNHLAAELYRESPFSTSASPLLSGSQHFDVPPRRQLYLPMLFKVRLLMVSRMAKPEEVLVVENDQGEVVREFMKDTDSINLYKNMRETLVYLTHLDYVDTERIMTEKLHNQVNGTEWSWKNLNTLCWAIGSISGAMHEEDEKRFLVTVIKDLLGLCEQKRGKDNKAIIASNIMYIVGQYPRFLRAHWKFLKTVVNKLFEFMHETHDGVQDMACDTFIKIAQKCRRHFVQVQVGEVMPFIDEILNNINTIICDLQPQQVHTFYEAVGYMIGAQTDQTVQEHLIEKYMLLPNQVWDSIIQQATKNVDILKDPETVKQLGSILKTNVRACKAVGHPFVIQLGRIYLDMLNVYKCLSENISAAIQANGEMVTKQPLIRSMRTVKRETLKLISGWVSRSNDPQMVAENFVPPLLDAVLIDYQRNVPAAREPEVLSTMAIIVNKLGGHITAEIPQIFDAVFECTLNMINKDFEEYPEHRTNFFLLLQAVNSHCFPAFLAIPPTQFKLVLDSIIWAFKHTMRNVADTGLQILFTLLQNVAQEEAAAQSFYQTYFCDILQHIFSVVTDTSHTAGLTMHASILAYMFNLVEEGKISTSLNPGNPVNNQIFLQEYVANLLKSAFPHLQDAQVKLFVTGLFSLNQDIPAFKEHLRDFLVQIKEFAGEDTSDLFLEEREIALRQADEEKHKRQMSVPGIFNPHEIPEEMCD

binding result: binds
B1: GST-RAD51 F86E (natural protein, human, UniProt Q06609 1-339, looked up)
chain: MAMQMQLEANADTSVEEESFGPQPISRLEQCGINANDVKKLEEAGFHTVEAVAYAPKKELINIKGISEAKADKILAEAAKLVPMGETTATEFHQRRSEIIQITTGSKELDKLLQGGIETGSITEMFGEFRTGKTQICHTLAVTCQLPIDRGGGEGKAMYIDTEGTFRPERLLAVAERYGLSGSDVLDNVAYARAFNTDHQTQLLYQASAMMVESRYALLIVDSATALYRTDYSGRGELSARQMHLARFLRMLLRLADEFGVAVVITNQVVAQVDGAAMFAADPKKPIGGNIIAHASTTRLYLRKGRGETRICKIYDSPCLPEAEAMFAINADGVGDAKD
